{
  "source": "paper PMC4309261",
  "target": "Sp1 (UniProt P08047 2-785)",
  "sequence (P08047 2-785)": "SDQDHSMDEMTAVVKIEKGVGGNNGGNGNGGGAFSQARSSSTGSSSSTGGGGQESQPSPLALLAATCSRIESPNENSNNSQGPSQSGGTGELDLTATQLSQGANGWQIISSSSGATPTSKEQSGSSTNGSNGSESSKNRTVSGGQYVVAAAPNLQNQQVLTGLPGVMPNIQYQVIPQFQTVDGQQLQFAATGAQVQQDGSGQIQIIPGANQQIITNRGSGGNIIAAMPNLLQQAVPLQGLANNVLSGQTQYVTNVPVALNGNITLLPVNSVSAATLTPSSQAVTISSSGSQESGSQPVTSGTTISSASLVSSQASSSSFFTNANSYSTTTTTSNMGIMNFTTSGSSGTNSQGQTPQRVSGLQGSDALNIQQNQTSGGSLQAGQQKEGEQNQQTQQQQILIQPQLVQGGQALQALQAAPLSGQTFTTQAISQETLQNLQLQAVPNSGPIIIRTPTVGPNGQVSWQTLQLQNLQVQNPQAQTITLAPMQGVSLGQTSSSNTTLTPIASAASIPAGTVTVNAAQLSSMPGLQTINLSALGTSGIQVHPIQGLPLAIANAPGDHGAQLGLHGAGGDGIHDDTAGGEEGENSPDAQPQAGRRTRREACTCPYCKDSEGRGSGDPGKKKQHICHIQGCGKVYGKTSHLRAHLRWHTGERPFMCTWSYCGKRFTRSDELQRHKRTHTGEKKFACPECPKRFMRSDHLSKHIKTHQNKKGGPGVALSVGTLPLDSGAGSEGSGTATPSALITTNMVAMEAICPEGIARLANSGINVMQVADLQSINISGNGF",
  "test": "EMSA",
  "data": [
    {"binder": "EZH2 promoter GC-rich oligo, wild type (dsDNA) DNA 1: ACTTGGCTTCCAGCACCCGCCCCGCCCCTCCCCCGCCCGGGAACTCTGCGGCGCCG DNA 2: CGGCGCCGCAGAGTTCCCGGGCGGGGGAGGGGCGGGGCGGGTGCTGGAAGCCAAGT", "values": [
      {"measurement": "binding result", "result": "binds"}
    ]},
    {"binder": "EZH2 promoter GC-rich oligo, mutant (dsDNA) DNA 1: ACTTGGCTTCCAGCACCCGAAAAGCTTCTCCAACGTTCGGGAACTCTGCGGCGCCG DNA 2: CGGCGCCGCAGAGTTCCCGAACGTTGGAGAAGCTTTTCGGGTGCTGGAAGCCAAGT", "values": [
      {"measurement": "binding result", "result": "no binding"}
    ]}
  ]
}
